Measured values taken from PMC10602183 (Research Square, 2023).

Assays:
[1] = target: T1, HIV-1 SF162 Env on infected CD4+ T cells (HIV-1 isolate SF162, UniProt P19550, strain); assay: flow cytometry on cells; primary human CD4+ T cells infected with HIV SF162 for 3 days, stained with HmAb64 (2 ug), goat anti-human-PE; uninfected cells as control; conditions: one partner purified
T1 construct: Env as the target follows from the antibody's specificity; also called HIV-1 on cell surface; SF162 infected CD4+ T cells; source: primary human CD4+ T cells infected with HIV SF162, on cells

[2] = target: T2, wild type gp120 Env protein of HIV-1 YU2 (HIV-1 isolate YU2, UniProt P35961); assay: ELISA; mAb64 against gp120, gp120-Core or their D368R mutant protein, as previously described; conditions: both partners purified
T2 construct: gp120 subunit of Env (cut product of gp160) of HIV-1 isolate YU2; The ELISA methods name gp120 and gp120-Core proteins; also called YU2 gp120

[3] = target: T3, wild type gp120 Env protein of HIV-1 JR-FL (HIV-1 isolate JR-FL, UniProt Q75760, strain); assay: as above; conditions: both partners purified
T3 construct: gp120 subunit of Env (cut product of gp160) of HIV-1 isolate JR-FL; The ELISA methods name gp120 and gp120-Core proteins; also called JR-FL gp120

[4] = target: T4, A244 gp120 (HIV-1 isolate A244); assay: SPR; Biacore 3000, CM4 or CM5 chips; gp120 or BG505-SOSIP amine-coupled to about 750 RU; HBS pH 7.4, 3 mM EDTA, 0.005% Tween-20, 0.05% carboxymethyl-dextran; 25 ul/min, 25 °C; conditions: both partners purified
T4 construct: gp120 subunit of Env (cut product of gp160) of HIV-1 isolate A244; also called gp120 protein from A244 viral isolate

[5] = target: T5, gp120 derived from HIV-1 SF162, biotinylated (HIV-1 isolate SF162, UniProt P19550, strain, biotin (Lynx biotinylation kit)); assay: flow cytometry on cells; HmAb64 blocking the staining of primary human CD4+ T cells by biotinylated gp120 (antibody and gp120 both purified proteins in solution); conditions: both partners purified
T5 construct: gp120 subunit of Env (cut product of gp160) of HIV-1 isolate SF162; also called SF162 gp120

Measured: binding result

B1: HmAb64 (antibody, V domains shown)
VH: QVQLVQSGAEVKKPGASVKVSCKASGYTFTSYDITWVRQAPGQGLEWMGWISAYNGDTNYAQRLQGRVTMTTDTSTSTAYMELRSLRSDDTAVYYCARAKHTVLVTAMRWFDPWGQGTLVTVSS
VL: DIQMTQSPSSLSASVGDRVTITCRASQSISNYLNWYQQKPGKAPKLLISATSSLQSGVPSRFSGSGSGTDFTLTISSLQPDDFATYYCQQSYSTPWTFGQGTKLEIK
notes: germline IGHV1-18*01, CDR H3 of 15 aa (Kabat); full-length human IgG heavy chain cloned from clone #64; germline IGKV1-39*01, CDR L3 of 9 aa (Kabat); kappa chain cloned from clone #64; Human IgG, kappa; also called clone #64; human IgG (HmAb64)
binds: all assays above
